Source: patent US20240158510A1 (GOVERNING COUNCIL OF THE UNIVERSITY OF TORONTO, published 2024)
Where two headings read alike, the source gives them in different places.

Assays:
[1] = biological target: T1, integrin αvβ1 expressed on CHO cells (UniProt P06756 31-1048; P05556 21-798, limits assumed); assay: flow cytometry titration on integrin-expressing CHO cells
T1 construct: whole, on cells; also called CHO AvB1; AvB1 CHO cells
Experimental: (§1) Adherent cells were brought into suspension using PBS supplemented with 10 mM ethylenediaminetetraacetic acid (EDTA). The cells were washed with PBS, resuspended in PBS supplemented with 1% BSA, and incubated for 15 minutes at 4° C. The cells were labelled with 50 μl of Fab-phage culture supernatant, or 500 nM Fab, or IgG for 30 minutes at 4° C., then washed with PBS and resuspended in PBS supplemented with 1% BSA. Next, the cells were labelled with anti-Fab (for Fab-phage), or anti-Flag (for Fabs) or anti-Fc (for IgGs) conjugated Alexa-488 secondary Ab according to manufacturer's instructions. Data were collected using a CytoFLEX-S flow-cytometer using a 488-nm laser with 530/25 nm filter settings. The cells were analyzed in PBS, and all acquired live events were greater than 10,000 cells per sample. Quantitation analysis was carried out using FlowJo v10.2 Software. For Ab cellular titration analysis, the Abs were added to antigen positive cells in duplicate samples from a range of 500 pM to 1 μM. The mean fluorescence signal values were subtracted from the control antigen negative cells signals, and EC50 determined using Graph-pad Prism, where x is the Fab concentration: […]

[2] = biological target: T2, integrin αvβ5 expressed on CHO cells (UniProt P06756 31-1048; P18084 24-799, limits assumed); assay: as above
T2 construct: whole, on cells
Experimental: as §1

[3] = biological target: T3, integrin αvβ8 expressed on CHO cells (UniProt P06756 31-1048; P26012 43-769, limits assumed); assay: as above
T3 construct: whole, on cells
Experimental: as §1

[4] = biological target: T4, integrin αvβ3 expressed on CHO cells (UniProt P06756 31-1048; P05106 27-788, limits assumed); assay: as above
T4 construct: whole, on cells
Experimental: as §1

[5] = biological target: T5, integrin αvβ6 expressed on CHO cells (UniProt P06756 31-1048; P18564 22-788, limits assumed); assay: as above
T5 construct: whole, on cells
Experimental: as §1

[6] = biological target: T3, integrin αvβ8 expressed on CHO cells; assay: flow cytometry titration on AvB8 CHO cells
Experimental: as §1

[7] = biological target: T2, integrin αvβ5 expressed on CHO cells; assay: flow cytometry titration on AvB5 CHO cells
Experimental: as §1

[8] = biological target: T4, integrin αvβ3 expressed on CHO cells; assay: flow cytometry titration on AvB3 CHO cells
Experimental: as §1

[9] = biological target: T1, integrin αvβ1 expressed on CHO cells; assay: cell-based or functional assay
[10] = biological target: T4, integrin αvβ3 expressed on CHO cells; assay: cell-based or functional assay
[11] = biological target: T6, recombinant mouse integrin-αvβ1 (mouse, UniProt P43406 31-988; P09055 21-728, limits assumed); assay: IgG titration on recombinant mouse integrin αvβ1, one site-total fit; assay format not stated
T6 construct: also called Recombinant Mouse Integrins

[12] = biological target: T1, integrin αvβ1 expressed on CHO cells; assay: cell-based or functional assay; remark: listed apart in the source
[13] = biological target: T2, integrin αvβ5 expressed on CHO cells; assay: cell-based or functional assay
[14] = biological target: T3, integrin αvβ8 expressed on CHO cells; assay: cell-based or functional assay
[15] = biological target: T4, integrin αvβ3 expressed on CHO cells; assay: cell-based or functional assay; remark: listed apart in the source
[16] = biological target: T5, integrin αvβ6 expressed on CHO cells; assay: cell-based or functional assay
[17] = biological target: T1, integrin αvβ1 expressed on CHO cells; assay: cell-based or functional assay; remark: listed apart in the source
[18] = biological target: T7, recombinant human integrin-αvβ1 (human, UniProt P06756 31-992; P05556 21-728, limits assumed); assay: IgG titration on recombinant human integrin αvβ1, one site-total fit; assay format not stated; design: Bmax: unit not given here
T7 construct: also called Recombinant Human Integrins

[19] = biological target: T5, integrin αvβ6 expressed on CHO cells; assay: flow cytometry titration on AvB6 CHO cells
Experimental: as §1

[20] = biological target: T1, integrin αvβ1 expressed on CHO cells; assay: flow cytometry titration on AvB1 CHO cells
Experimental: as §1

T6 sequence (P43406 31-988 limits assumed, chain 1 of 2): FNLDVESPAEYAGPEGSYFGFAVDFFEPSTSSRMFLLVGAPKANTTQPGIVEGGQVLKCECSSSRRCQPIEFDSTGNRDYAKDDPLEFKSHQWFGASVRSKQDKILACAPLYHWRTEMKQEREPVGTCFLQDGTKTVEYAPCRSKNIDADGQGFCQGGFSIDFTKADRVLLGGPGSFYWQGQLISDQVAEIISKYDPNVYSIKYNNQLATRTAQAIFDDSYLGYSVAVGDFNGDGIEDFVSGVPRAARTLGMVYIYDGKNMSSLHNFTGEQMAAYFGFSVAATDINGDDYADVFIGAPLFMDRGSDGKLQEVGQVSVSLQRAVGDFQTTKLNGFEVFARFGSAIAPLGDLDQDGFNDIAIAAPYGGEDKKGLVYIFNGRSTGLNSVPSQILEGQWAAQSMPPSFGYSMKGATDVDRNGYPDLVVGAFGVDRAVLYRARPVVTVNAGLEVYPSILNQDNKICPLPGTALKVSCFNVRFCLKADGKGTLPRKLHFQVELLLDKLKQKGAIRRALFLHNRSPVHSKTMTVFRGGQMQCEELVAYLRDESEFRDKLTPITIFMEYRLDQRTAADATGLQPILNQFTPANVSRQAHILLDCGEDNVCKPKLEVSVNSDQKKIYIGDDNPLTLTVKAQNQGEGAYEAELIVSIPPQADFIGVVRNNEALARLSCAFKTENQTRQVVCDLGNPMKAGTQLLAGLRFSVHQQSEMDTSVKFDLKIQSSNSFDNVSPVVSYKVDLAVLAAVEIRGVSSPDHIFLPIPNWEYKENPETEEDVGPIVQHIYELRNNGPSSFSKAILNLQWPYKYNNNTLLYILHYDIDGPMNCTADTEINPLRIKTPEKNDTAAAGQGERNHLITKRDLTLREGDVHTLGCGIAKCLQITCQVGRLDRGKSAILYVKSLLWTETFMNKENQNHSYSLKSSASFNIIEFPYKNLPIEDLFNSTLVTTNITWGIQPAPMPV
T6 sequence (P09055 21-728 limits assumed, chain 2 of 2): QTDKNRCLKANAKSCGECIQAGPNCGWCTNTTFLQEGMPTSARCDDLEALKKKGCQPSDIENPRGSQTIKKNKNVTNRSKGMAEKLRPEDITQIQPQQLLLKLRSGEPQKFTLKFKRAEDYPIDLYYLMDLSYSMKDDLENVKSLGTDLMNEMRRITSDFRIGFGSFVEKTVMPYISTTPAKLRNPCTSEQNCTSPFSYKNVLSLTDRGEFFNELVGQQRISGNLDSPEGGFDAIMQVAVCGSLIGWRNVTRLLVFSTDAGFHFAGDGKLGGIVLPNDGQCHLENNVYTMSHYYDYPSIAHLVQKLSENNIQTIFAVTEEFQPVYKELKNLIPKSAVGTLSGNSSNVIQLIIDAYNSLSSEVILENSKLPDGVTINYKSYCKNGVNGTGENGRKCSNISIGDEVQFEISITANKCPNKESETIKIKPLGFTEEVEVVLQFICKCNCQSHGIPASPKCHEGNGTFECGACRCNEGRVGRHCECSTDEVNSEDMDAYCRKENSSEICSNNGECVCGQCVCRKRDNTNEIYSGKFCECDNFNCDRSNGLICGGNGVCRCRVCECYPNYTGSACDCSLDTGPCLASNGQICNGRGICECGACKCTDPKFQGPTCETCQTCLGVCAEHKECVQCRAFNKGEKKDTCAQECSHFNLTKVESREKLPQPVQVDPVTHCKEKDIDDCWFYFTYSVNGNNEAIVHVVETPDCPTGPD
T7 sequence (P06756 31-992 limits assumed, chain 1 of 2): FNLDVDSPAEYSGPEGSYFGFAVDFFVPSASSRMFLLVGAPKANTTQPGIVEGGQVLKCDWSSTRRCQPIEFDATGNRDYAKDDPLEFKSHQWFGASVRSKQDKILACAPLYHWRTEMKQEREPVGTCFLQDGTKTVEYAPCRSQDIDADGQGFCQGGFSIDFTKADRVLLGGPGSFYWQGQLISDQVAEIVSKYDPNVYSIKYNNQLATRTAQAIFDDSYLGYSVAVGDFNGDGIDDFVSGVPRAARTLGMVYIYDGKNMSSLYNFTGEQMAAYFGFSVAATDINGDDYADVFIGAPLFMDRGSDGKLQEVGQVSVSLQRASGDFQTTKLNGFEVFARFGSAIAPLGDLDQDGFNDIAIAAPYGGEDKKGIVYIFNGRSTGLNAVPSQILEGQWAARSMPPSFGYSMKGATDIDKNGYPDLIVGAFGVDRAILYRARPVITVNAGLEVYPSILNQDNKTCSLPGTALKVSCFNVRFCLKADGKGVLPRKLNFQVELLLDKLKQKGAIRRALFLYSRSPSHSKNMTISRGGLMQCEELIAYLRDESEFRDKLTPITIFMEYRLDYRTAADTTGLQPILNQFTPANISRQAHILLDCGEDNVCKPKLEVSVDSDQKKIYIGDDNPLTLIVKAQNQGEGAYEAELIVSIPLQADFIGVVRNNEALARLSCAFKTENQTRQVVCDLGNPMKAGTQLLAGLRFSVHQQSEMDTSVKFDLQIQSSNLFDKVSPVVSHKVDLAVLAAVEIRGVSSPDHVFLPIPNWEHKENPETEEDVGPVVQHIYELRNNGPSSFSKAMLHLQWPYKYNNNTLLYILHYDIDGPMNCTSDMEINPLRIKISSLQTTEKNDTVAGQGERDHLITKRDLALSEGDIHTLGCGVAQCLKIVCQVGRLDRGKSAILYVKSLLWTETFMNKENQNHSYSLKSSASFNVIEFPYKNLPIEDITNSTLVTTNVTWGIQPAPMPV
T7 sequence (P05556 21-728 limits assumed, chain 2 of 2): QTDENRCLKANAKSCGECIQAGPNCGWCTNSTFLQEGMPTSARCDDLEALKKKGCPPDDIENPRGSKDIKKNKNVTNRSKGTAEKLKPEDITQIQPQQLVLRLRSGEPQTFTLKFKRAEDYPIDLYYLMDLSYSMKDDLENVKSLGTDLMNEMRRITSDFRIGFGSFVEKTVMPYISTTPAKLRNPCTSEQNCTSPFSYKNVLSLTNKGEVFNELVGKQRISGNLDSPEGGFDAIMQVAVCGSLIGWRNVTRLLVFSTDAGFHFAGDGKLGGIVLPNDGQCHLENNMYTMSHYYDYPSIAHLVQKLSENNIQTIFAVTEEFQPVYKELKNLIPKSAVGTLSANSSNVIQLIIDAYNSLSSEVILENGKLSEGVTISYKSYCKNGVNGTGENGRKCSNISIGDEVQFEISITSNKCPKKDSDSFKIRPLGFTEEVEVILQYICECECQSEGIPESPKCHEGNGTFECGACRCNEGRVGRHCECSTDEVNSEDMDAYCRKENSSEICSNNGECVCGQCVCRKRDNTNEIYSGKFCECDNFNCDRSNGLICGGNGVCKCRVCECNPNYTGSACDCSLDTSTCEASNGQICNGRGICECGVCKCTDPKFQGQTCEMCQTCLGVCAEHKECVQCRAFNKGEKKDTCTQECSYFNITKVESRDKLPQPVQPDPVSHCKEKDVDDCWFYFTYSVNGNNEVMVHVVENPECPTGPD
T3 sequence (P06756 31-1048 limits assumed, chain 1 of 2): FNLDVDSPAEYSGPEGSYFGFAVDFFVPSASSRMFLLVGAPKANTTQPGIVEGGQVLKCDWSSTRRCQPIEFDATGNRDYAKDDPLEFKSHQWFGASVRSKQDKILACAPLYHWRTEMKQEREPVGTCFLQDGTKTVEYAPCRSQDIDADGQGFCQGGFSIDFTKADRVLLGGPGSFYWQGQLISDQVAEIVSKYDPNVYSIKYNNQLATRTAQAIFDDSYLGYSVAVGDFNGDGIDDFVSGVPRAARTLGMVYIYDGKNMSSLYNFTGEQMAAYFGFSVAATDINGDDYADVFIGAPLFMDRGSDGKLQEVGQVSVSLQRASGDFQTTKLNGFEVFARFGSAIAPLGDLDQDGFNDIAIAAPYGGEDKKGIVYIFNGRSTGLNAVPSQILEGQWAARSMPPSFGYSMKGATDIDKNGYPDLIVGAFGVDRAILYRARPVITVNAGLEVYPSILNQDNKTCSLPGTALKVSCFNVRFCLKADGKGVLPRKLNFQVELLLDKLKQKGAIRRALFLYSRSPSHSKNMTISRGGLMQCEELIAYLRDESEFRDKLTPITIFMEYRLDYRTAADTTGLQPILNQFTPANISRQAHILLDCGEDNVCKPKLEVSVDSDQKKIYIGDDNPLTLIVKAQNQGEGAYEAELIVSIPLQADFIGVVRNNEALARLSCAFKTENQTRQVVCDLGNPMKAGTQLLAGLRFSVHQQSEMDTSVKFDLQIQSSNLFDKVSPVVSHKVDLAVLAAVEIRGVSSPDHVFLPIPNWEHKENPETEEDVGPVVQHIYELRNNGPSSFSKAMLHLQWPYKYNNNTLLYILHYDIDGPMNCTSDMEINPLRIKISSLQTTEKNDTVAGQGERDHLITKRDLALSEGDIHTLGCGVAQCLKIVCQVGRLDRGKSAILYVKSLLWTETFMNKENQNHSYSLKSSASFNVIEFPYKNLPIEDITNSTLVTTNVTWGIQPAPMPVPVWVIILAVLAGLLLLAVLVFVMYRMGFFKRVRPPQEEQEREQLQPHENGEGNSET
T3 sequence (P26012 43-769 limits assumed, chain 2 of 2): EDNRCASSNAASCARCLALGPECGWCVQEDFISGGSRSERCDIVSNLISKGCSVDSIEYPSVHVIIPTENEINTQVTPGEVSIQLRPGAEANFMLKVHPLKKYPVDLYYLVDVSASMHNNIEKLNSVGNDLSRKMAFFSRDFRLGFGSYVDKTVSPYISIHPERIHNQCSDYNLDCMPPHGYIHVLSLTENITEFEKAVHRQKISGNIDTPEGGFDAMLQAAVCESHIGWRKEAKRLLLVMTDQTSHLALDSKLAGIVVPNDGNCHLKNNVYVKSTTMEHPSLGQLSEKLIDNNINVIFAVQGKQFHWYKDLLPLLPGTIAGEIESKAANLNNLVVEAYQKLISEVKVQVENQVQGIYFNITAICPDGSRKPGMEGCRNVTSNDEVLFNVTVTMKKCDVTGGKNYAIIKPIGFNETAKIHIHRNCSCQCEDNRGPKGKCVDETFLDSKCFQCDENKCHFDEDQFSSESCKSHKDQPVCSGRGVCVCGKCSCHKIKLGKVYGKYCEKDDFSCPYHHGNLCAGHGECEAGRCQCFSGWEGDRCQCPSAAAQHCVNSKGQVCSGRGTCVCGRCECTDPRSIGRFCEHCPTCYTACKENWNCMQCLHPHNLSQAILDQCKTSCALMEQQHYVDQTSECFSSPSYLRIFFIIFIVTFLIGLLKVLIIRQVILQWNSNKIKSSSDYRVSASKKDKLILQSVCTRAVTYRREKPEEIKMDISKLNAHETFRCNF

Binder	EC50 [6] [nM]	EC50 [7] [nM]	EC50 [8] [nM]	Bmax [11]	Kd [11] [nM]	IC50, inhibition of CHO cell adhesion to LAP-TGFβ [12] [nM]	IC50, inhibition of CHO cell adhesion to LAP-TGFβ [13] [nM]	IC50, inhibition of CHO cell adhesion to LAP-TGFβ [14] [nM]	IC50, inhibition of CHO cell adhesion to LAP-TGFβ [15] [nM]	IC50, inhibition of CHO cell adhesion to LAP-TGFβ [16] [nM]	Bmax [18]	Kd [18] [nM]	EC50 [19] [nM]	EC50 [20] [nM]	also measured
10404 hG1 LALA PG/hk (antibody, V domains shown, not shown: human IgG1 constant region with 'LALA PG' changes) VH: EVQLVESGGGLVQPGGSLRLSCAASGFNLYSSSIHWVRQAPGKGLEWVAYIYPSYGYTSTYADSVKGRFTISADTSKNTAYLQMNSLRAEDTAVYYCARPAPYYSWYPAMDYWGQGTLVTVSS VL: DIQMTQSPSSLSASVGDRVTITCRASQSVSSAVAWYQQKPGKAPKLLIYSASSLYSGVPSRFSGSRSGTDFTLTISSLQPEDFATYYCQQASGSPFTFGQGTKVEIKR	–	–	–	1.09	0.244	–	–	–	–	–	1.09	0.244	–	–	–
10392 hG4/hk (antibody, human IgG4, V domains shown, not shown: human IgG4 constant region ('hG4')) VH: EVQLVESGGGLVQPGGSLRLSCAASGFNIYYSSIHWVRQAPGKGLEWVASISSSSGSTSTYADSVKGRFTISADTSKNTAYLQMNSLRAEDTAVYYCARSYYGGGYPYALDYWGQGTLVTVSS VL: DIQMTQSPSSLSASVGDRVTITCRASQSVSSAVAWYQQKPGKAPKLLIYSASSLYSGVPSRFSGSRSGTDFTLTISSLQPEDFATYYCQQYFGGLITFGQGTKVEIKR	–	–	–	0.85	0.842	–	–	–	–	–	0.85	0.842	–	–	–
10392 hG1 LALA PG/hk (antibody, human IgG1, V domains shown, not shown: human IgG1 constant region with 'LALA PG' changes) VH: EVQLVESGGGLVQPGGSLRLSCAASGFNIYYSSIHWVRQAPGKGLEWVASISSSSGSTSTYADSVKGRFTISADTSKNTAYLQMNSLRAEDTAVYYCARSYYGGGYPYALDYWGQGTLVTVSS VL: DIQMTQSPSSLSASVGDRVTITCRASQSVSSAVAWYQQKPGKAPKLLIYSASSLYSGVPSRFSGSRSGTDFTLTISSLQPEDFATYYCQQYFGGLITFGQGTKVEIKR	–	–	–	0.555	0.411	–	–	–	–	–	0.555	0.411	–	–	–

Further lines, with some results ahead:

EC50 [6] [nM]	EC50 [7] [nM]	EC50 [8] [nM]	Bmax [11]	Kd [11] [nM]	IC50, inhibition of CHO cell adhesion to LAP-TGFβ [12] [nM]	IC50, inhibition of CHO cell adhesion to LAP-TGFβ [13] [nM]	IC50, inhibition of CHO cell adhesion to LAP-TGFβ [14] [nM]	IC50, inhibition of CHO cell adhesion to LAP-TGFβ [15] [nM]	IC50, inhibition of CHO cell adhesion to LAP-TGFβ [16] [nM]	Bmax [18]	Kd [18] [nM]	EC50 [19] [nM]	EC50 [20] [nM]	Binder	also measured
11.6	1.3	9.9	0.412	0.421	5	0.7	1.3	1.2	1.4	0.412	0.421	3.7	3	IgG clone 10392, hG1/hk (pSCSTa-hG1 (10392) heavy chain, pSCSTa-hK (10392) light chain) (antibody, V domains shown, Full-length human IgG1/kappa made in Expi293 cells) VH: EVQLVESGGGLVQPGGSLRLSCAASGFNIYYSSIHWVRQAPGKGLEWVASISSSSGSTSTYADSVKGRFTISADTSKNTAYLQMNSLRAEDTAVYYCARSYYGGGYPYALDYWGQGTLVTVSS VL: DIQMTQSPSSLSASVGDRVTITCRASQSVSSAVAWYQQKPGKAPKLLIYSASSLYSGVPSRFSGSRSGTDFTLTISSLQPEDFATYYCQQYFGGLITFGQGTKVEIKR	EC50 [1]: 2.72 nM; EC50 [2]: 3.4 nM; EC50 [3]: 11.4 nM; EC50 [4]: 14.8 nM; EC50 [5]: 3.26 nM; IC50, inhibition of CHO cell adhesion to LAP-TGFβ [9]: < 1 nM; IC50, inhibition of CHO cell adhesion to LAP-TGFβ [10]: 45 nM; adhesion of integrin-αvβ1 CHO cells to LAP-TGFβ, normalised confluence, number over the bar, untreated = 100 [17]: 61.2%
6.4	1.2	15.9	–	–	3.2	4.1	2.5	7.5	6.1	–	–	2.5	2.4	Bi-IgG 11867/10392 (bispecific antibody) heavy chain 10392, knob: EVQLVESGGGLVQPGGSLRLSCAASGFNIYYSSIHWVRQAPGKGLEWVASISSSSGSTSYADSVKGRFTISADTSKNTAYLQMNSLRAEDTAVYYCARSYYGGGYPYALDYWGQGTLVTVSSASTKGPSVFPLAPSSKSTSGGTAALGCLVKDYFPEPVTVSWNSGALTSGVHTFPAVLQSSGLYSLSSVVTVPSSSLGTQTYICNVNHKPSNTKVDKKVEPKSCDKTHTCPPCPAPELLGGPSVFLFPPKPKDTLMISRTPEVTCVVVDVSHEDPEVKFNWYVDGVEVHNAKTKPREEQYNSTYRVVSVLTVLHQDWLNGKEYKCKVSNKALPAPIEKTISKAKGQPREPMVFDLPPSREEMTKNQVSLWCMVKGFYPSDIAVEWESNGQPENNYKTTPPVLDSDGSFFLYSKLTVDKSRWQQGNVFSCSVMHEALHNHYTQKSLSLSPGK heavy chain 11867, hole: EVQLVESGGGLVQPGGSLRLSCAASGFDFDSYAIHWVRQAPGKGLEWVAYFYPGHDYSTYADSVKGRFTISADTSKNTAYLQMNSLRAEDTAVYYCARPSPYFSWHQAMDYWGQGTLVTVSSASTKGPSVFPLAPSSKSTSGGTAALGCLVKDYFPEPVTVSWNSGALTSGVHTFPAVLQSSGLYSLSSVVTVPSSSLGTQTYICNVNHKPSNTKVDKKVEPKSCDKTHTCPPCPAPELLGGPSVFLFPPKPKDTLMISRTPEVTCVVVDVSHEDPEVKFNWYVDGVEVHNAKTKPREEQYNSTYRVVSVLTVLHQDWLNGKEYKCKVSNKALPAPIEKTISKAKGQPREPQVYTLPPIRELMTSNQVSLSCAVKGFYPSDIAVEWESNGQPENNYKTTPPVLDSDGSFFLVSKLTVDKSRWQQGNVFSCSVMHEALHNHYTQKSLSLSPGK light chain 11867: DIQMTQSPSSLSASVGDRVTITCRASQSVSSAVAWYQQKPGKAPKLLIYSASSLYSGVPSRFSGSRSGTDFTLTISSLQPEDFATYYCQQATGSEVTFGQGTKVEIKRTVAAPSVFIFPPSDEQLKSGTASVVCLLNNFYPREAKVQWKVDNALQSGNSQESVTEQDSKDSTYSLSSTLTLSKADYEKHKVYACEVTHQGLSSPVTKSFNRGEC	–
–	–	–	0.782	0.358	–	–	–	–	–	0.782	0.358	–	–	10404 hG4/hk (antibody, V domains shown, the IgG4 constant region used is not specified; not shown: human IgG4 constant region ('hG4')) VH: EVQLVESGGGLVQPGGSLRLSCAASGFNLYSSSIHWVRQAPGKGLEWVAYIYPSYGYTSTYADSVKGRFTISADTSKNTAYLQMNSLRAEDTAVYYCARPAPYYSWYPAMDYWGQGTLVTVSS VL: DIQMTQSPSSLSASVGDRVTITCRASQSVSSAVAWYQQKPGKAPKLLIYSASSLYSGVPSRFSGSRSGTDFTLTISSLQPEDFATYYCQQASGSPFTFGQGTKVEIKR	–
